Source: paper PMC314469, “Protein Interaction Networks by Proteome Peptide Scanning” (PLoS Biology, 2004)

What was measured:
Assay in all cases: SPOT array
[1] = biological target: T1, Boi1 SH3 (BOI1_YEAST), P38041
T1 chain: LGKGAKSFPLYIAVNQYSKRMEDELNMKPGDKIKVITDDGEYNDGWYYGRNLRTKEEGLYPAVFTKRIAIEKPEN

[2] = biological target: T2, Yhr016c SH3 (YSC84_YEAST), P32793
T2 chain: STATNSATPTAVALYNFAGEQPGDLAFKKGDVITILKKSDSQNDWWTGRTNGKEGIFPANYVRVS

[3] = biological target: T3, Boi2 SH3 (BOI2_YEAST), P39969
T3 chain: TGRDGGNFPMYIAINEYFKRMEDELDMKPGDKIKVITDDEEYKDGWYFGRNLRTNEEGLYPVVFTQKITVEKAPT

[4] = biological target: T4, Yfr024 SH3 (LSB3_YEAST), P43603
T4 chain: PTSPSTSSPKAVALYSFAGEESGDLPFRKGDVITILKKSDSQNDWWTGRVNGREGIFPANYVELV

[5] = biological target: T5, Rvs167 SH3 (RV167_YEAST), P39743
T5 chain: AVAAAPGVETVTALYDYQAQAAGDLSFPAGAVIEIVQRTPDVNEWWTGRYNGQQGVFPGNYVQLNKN

| Binder | normalised SPOT signal, Boehringer light units (BLU); mean over the file's lines of this peptide [1] | normalised SPOT signal, Boehringer light units (BLU); mean over the file's lines of this peptide [2] | normalised SPOT signal, Boehringer light units (BLU); mean over the file's lines of this peptide [3] | normalised SPOT signal, Boehringer light units (BLU); mean over the file's lines of this peptide [4] | normalised SPOT signal, Boehringer light units (BLU); mean over the file's lines of this peptide [5] |
| --- | --- | --- | --- | --- | --- |
| EIAPLIPKKPALRK [YDR080W 597-610] | 110 | 0 | 90.8 | 5120 | 80 |
| EKGPRMPSRGRPRP [YPR171W 144-157] | 394 | 1840 | 161 | 5120 | 72.6 |
| EILPVKPTKKSSKK [YCL014W 808-821] | 364 | 34.7 | 21.3 | 2720 | 63.9 |
| EAPPAKPSRSDIID [YOR066W 225-238] | 70.5 | 2010 | 54.9 | 3400 | 31.9 |
| EKLPETPDRSKSAS [YLR343W 379-392] | 69.3 | 5560 | 69.2 | 12200 | 67.1 |
| EFSPTYPSKLFVPR [YJR110W 189-202] | 53.2 | 143 | 33.3 | 796 | 69.9 |
| ESHPELPNKDVKLD [YGL125W 158-171] | 128 | 75.4 | 22.1 | 139 | 25.4 |
| EEHPSSPGKKQITY [YLR238W 11-24] | 84 | 24.5 | 17.6 | 44.3 | 5.7 |
| EKLPAIPRKFIVTE [YMR296C 278-291] | 26.8 | 208 | 17.5 | 667 | 41.4 |
| ELDPISPLKVPLTA [YGR166W 276-289] | 56.8 | 160 | 46 | 42.4 | 39.4 |
| EKFPKLPHKLVHML [YKR024C 336-349] | 56.5 | 139 | 83.5 | 7910 | 32.9 |
| EHKPVSPDKIGTFT [YDR443C 81-94] | 58.8 | 181 | 21.4 | 60.4 | 59.1 |
| EIAPSLPSRNSIPA [YCR088W 471-484] | 92.9 | 40900 | 51.6 | 35400 | 18700 |
| EFIPPDPTKVTEFE [YNL025C 151-164] | 98 | 53.3 | 39.5 | 26.8 | 16.4 |

Results, then the binder that gave them:

| normalised SPOT signal, Boehringer light units (BLU); mean over the file's lines of this peptide [1] | normalised SPOT signal, Boehringer light units (BLU); mean over the file's lines of this peptide [2] | normalised SPOT signal, Boehringer light units (BLU); mean over the file's lines of this peptide [3] | normalised SPOT signal, Boehringer light units (BLU); mean over the file's lines of this peptide [4] | normalised SPOT signal, Boehringer light units (BLU); mean over the file's lines of this peptide [5] | Binder |
| --- | --- | --- | --- | --- | --- |
| 619 | 72200 | 53.3 | 31200 | 26300 | EEHPPLPARRKSEE [YOR042W 80-93] |
| 65.2 | 333 | 60 | 109 | 38.4 | ELEPQHPLRHKSSL [YER027C 53-66] |
| 89.1 | 91.1 | 11 | 5.2 | 38.5 | EGKPLFPGKDHVHQ [YLR113W 212-225] |
| 24.7 | 100 | 18 | 5620 | 14.6 | EDTPDLPQKTGIRK [YJR137C 1229-1242] |
| 34.7 | 12.5 | 21.5 | 244 | 65.2 | EILPQAPAKKVFES [YDR444W 379-392] |
| 121 | 14500 | 15.5 | 41400 | 135 | EIPPPLPPKIMVHS [YIL156W 528-541] |
| 0 | 62400 | 54.8 | 46300 | 6410 | EEKPLLPTRPNKAE [YPR171W 203-216] |
| 59.6 | 51.3 | 40.1 | 290 | 51.1 | EESPVKPLKITQKA [YLL021W 583-596] |
